Patent US20200270358A1 (BEIJING GEFUCURE BIOTECHNOLOGY, published 2020)

Biological target: T1, CD20 antigen on the surface of Daudi and Raji B lymphoma cells (human, UniProt P11836 1-297)
T1 sequence (looked up): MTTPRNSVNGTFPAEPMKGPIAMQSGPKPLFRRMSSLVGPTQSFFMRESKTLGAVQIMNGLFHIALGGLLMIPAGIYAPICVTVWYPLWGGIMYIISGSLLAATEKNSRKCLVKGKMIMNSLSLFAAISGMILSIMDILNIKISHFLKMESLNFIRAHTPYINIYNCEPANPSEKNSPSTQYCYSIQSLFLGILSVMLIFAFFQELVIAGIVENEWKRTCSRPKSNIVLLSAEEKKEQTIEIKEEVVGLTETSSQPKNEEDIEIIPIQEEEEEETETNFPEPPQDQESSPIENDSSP
Assay: cell-based or functional assay

B1: recombinant afucosylated anti-human CD20 monoclonal antibody prepared in Example 2 (expressed in the milk of a transgenic cow) (antibody, human IgG1, kappa)
heavy: not shown
light: QIVLSQSPAILSASPGEKVTMTCRASSSVSYIHWFQQKPGSSPKPWIYATSNLASGVPVRFSGSGSGTSYSLTISRVEAEDAATYYCQQWTSNPPTFGGGTKLEIKRTVAAPSVFIFPPSDEQLKSGTASVVCLLNNFYPREAKVQWKVDNALQSGNSQESVTEQDSKDSTYSLSSTLTLSKADYEKHKVYACEVTHQGLSSPVTKSFNRGEC
modifications: N-linked sugar chain at Asn-320, mainly afucosylated glycoform (80% to 100%), of which the G2 glycoform is 30% to 100%
- EC50 (read off the curve): ADCC, percentage of cell lysis (LDH release), NK92/CD16a (158 V/V) effector cells, CD20-bearing B lymphoma target cells: ~0.5 ng/mL
